Test results taken from US20170101477A1 (Regeneron, published 2017).

B1: H4H16650P2 (antibody, human IgG4, V domains shown)
VH: QVQLVESGGGVVQPGKSLRLSCVASGFTFSSDAMYWVRQAPGKGLEWVAVIYYDGNYQYYEDSVKGRFTISRDNSQNTLDLQMNSLRVDDTAVYFCARLNWDYWYLDLWGRGTLVTVSS
VL: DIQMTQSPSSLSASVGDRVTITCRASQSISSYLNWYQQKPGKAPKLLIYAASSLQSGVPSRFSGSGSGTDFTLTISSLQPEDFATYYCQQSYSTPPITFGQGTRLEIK
notes: H4H prefix means human IgG4 Fc; Classed as agonist
B2: H4H17319P2 (antibody, human IgG4, V domains shown)
VH: QVQLVESGGSVVQPGRSLRLSCAASGFTFSTYAMYWVRQTPGKGLEWVAVLYSDGSNKYYIDSVKGRFTISRDTSTNTLYLQMSSLRADDSALYYCARLNWDYWYFDLWGRGTLVTVSS
VL: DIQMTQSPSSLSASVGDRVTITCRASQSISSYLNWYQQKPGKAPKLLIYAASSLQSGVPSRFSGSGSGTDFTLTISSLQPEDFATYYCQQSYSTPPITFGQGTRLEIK
notes: human IgG4 Fc; Classed as agonist
B3: H4H18446P2 (antibody, human IgG4, V domains shown)
VH: EVQLVESGGGLVQPGGSLRLSCAASGFTFSNYGMTWVRQAPGKGLEWVSAITGGGGSTYYSNSVKGRFTISRDNSKNTVYLRMNSVRAEDTAVYYCAKYKWNFVDDWGQGTTVTVSS
VL: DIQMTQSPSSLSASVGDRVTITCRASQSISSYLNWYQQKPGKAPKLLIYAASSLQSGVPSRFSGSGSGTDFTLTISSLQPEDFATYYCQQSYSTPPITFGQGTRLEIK
notes: human IgG4 Fc
B4: H4H18445P2 (antibody, human IgG4, V domains shown)
VH: QVQLQESGPGLVKPSQTLSLTCTVSGGSISSGGDYWSWIRQLPGKGLEWIGYIYYSGSAYYNPSLKSRGTISIDTSKNQFSLKLTSVTAADTAVYFCVKLRFLEWFLGGWFGPWGQGTLVTVSS
VL: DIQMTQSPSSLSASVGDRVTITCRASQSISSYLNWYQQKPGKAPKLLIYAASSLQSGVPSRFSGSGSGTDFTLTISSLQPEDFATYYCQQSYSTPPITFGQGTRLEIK
notes: human IgG4 Fc
B5: H4H16679P2 (antibody, human IgG4, V domains shown)
VH: QVQLVESGGGVVQPGRSLRLSCTASGFTFSSYAMYWVRQAPGKGLEWVSVIYYDGSYKYYADSVKGRFTISRDNSKNTLYLQMDSLRAEDTAVYYCASYNWNYWYFDFWGRGTLVTVSS
VL: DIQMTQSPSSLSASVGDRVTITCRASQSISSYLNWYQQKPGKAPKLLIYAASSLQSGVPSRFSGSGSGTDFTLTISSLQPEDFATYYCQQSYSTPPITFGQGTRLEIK
notes: as for B2
B6: H4H17321P2 (antibody, human IgG4, V domains shown)
VH: QVQLVESGGGVVQPGRSLRLSCEASGFSSSDNAMYWVRQAPGKGLEWVSVIYHDGSYKYYEDSVKGRFTIARDNSKNTLYLQMNSLRAEDTAVYYCARYNWNHWYFDVWGRGTLVTVSS
VL: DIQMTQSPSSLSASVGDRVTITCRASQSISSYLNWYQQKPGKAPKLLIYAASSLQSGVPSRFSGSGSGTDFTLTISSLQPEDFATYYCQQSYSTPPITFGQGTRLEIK
notes: as for B2
B7: H4H18438P2 (antibody, human IgG4, V domains shown)
VH: QVQLVESGGGVVQPGRSLRLSCAASGFSFNTYGMHWVRQAPGKGLEWVTIIWYDGSIKYYADSVKGRFTISRDNSKNTLYLQMNSLRAEDTAVYYCARGGYSGYLYFDYWGQGTLVTVSS
VL: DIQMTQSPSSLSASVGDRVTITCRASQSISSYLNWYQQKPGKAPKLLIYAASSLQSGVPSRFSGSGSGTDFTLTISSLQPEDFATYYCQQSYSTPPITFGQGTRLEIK
notes: human IgG4 Fc; Classed as potentiator
B8: H4H18449P2 (antibody, human IgG4, V domains shown)
VH: EVQLVESGGGLVQPGGSLRLSCVASGFTFNKYDMHWVRQTTGKGLEWVSGIDTDGDTYYPGSVKGRFTISRENAENSLYLQMNGLRVGDTAVYYCARWPWSGFYGAFDIWGQGTMVTVSS
VL: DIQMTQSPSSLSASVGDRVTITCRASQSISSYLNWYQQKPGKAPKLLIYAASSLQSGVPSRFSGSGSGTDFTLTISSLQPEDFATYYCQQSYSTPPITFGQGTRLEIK
notes: human IgG4 Fc; summary lists 74/66
B9: H4H18417P2 (antibody, human IgG4, V domains shown)
VH: QVQLVESGGGVVQPGRSLRLSCAASGFTFSTYGMHWVRQAPGKGLEWVSVISYDESNKYYADSVKGRFTISRDNSKNALYLQMNSLRNEDTAVYYCARDRPFGLVTGWFDPWGQGTLVTVSS
VL: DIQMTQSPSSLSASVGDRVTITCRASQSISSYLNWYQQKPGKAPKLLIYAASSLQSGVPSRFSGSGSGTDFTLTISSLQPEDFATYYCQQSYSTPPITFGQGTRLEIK
notes: as for B7

Columns and labels:
[1] = target: T1, Mycx2-hLepR(ecto)-GPI anchored, on HEK293/hLEPR-GPI cells (human, UniProt P48357 22-839, GPI anchor at the C-terminus); assay: FACS, 70 nM Ab, HEK293/hLEPR-GPI
T1 construct: also called HEK293/Mycx2-hLepR(ecto)-GPI; not shown: N-terminal myc-myc tag
T1 sequence: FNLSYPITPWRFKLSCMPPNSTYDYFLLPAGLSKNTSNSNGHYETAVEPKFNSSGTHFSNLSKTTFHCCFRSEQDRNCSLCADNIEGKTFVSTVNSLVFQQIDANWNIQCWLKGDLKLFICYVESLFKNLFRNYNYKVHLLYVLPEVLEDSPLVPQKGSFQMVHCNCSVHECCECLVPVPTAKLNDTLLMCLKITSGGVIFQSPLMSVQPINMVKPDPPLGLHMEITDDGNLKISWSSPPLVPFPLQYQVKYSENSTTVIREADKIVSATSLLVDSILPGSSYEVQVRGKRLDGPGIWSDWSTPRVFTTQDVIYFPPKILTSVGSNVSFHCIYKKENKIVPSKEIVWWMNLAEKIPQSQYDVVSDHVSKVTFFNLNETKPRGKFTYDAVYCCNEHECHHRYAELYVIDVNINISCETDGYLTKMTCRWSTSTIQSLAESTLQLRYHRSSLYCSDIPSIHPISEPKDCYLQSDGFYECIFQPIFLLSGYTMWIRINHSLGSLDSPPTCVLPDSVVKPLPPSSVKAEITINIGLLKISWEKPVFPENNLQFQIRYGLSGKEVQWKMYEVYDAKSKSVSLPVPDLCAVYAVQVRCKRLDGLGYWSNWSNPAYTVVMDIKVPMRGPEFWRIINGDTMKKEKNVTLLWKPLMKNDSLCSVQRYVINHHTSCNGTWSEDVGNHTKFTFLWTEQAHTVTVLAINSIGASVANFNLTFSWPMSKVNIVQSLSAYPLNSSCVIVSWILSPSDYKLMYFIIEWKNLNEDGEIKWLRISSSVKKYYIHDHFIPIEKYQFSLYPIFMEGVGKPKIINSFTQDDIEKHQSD

[2] = target: T2, full length human LEPR (amino acids 1-1165 of P48357, Isoform B), on cells (human, UniProt P48357 22-1165); assay: FACS, 70 nM Ab, HEK293/Stat3-luc/hLEPR-FL
T2 construct: also called hLEPR-FL; HEK293/Stat3-luc/hLEPR-FL
T2 sequence: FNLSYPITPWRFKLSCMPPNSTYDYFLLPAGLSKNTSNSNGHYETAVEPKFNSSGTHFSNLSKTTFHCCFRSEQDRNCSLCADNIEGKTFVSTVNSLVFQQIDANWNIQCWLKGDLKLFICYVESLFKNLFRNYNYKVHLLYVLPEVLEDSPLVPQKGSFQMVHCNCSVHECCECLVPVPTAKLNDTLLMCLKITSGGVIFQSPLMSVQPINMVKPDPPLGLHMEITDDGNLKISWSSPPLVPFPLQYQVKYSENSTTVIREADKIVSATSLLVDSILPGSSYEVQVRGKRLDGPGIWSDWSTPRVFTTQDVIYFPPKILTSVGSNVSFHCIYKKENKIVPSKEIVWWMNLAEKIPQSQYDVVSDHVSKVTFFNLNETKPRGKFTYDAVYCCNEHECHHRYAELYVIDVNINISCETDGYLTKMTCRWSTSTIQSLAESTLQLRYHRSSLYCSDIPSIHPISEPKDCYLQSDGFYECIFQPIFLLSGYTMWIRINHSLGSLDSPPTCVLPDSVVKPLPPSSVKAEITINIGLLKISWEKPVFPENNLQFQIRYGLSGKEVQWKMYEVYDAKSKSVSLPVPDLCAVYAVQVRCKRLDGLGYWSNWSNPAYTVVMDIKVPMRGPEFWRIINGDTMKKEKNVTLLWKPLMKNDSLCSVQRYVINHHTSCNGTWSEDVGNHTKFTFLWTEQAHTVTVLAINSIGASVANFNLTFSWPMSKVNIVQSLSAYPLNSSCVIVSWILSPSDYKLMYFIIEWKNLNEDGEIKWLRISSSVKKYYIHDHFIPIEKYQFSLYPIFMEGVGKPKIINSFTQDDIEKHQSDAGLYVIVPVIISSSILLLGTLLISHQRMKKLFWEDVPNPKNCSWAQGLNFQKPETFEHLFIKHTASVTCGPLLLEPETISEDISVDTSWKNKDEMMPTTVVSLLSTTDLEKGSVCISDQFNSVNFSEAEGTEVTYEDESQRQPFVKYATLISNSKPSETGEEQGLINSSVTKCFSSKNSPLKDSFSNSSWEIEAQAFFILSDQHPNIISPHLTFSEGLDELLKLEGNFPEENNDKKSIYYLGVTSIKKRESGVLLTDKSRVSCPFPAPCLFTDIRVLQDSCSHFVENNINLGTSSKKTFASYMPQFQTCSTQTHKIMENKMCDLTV

[3] = target: T1, Mycx2-hLepR(ecto)-GPI anchored, on …; assay: FACS, 10 nM Ab, HEK293/hLEPR-GPI, 1 uM Leptin
Method: (§1) For the FACS analysis, HEK293 parental cells and HEK293/hLEPR-GPI cells were dissociated and plated onto 96-well v-bottom plates at 5×10⁵ cells/well in PBS containing 2% FBS (FACS buffer). […] Cells were subsequently fixed using BD CytoFix™ (Becton Dickinson, #554655), filtered, and analyzed on a HyperCyt Flow Cytometer (Beckman Coulter). Unstained and secondary antibody alone controls were also tested for all cell lines. The results were analyzed using ForeCyt (IntelliCyt) and FlowJo version 10 software to determine the geometric means of fluorescence for viable cells. The geometric mean of fluorescence for each sample was then normalized to the geometric mean of unstained cells to obtain relative binding per condition referred to as “binding ratios”, and these binding ratios were recorded for each antibody tested.

[4] = target: T1, Mycx2-hLepR(ecto)-GPI anchored, on …; assay: FACS, 10 nM Ab, HEK293/hLEPR-GPI, no added Leptin
Method: as §1

[5] = target: T3, human LEPR extracellular domain expressed with a C-terminal myc-myc-hexahistidine tag (hLEPR.mmh) (human, UniProt P48357 22-839); assay: SPR, mAb over preformed hLEPR-MMH:human Leptin complex
T3 construct: also called human LEPR-MMH; monomeric human LEPR
Method: The entire study was performed in 10 mM HEPES pH 7.4, 150 mM NaCl, 3 mM EDTA, and 0.05% v/v Surfactant Tween-20 (HBS-ET running buffer) at 25° C.

[6] = target: T4, human LEPR CRH1 (D1,D2,D3)-MMH (human, UniProt P48357 22-427); assay: Luminex, myc-captured LEPR protein
T4 construct: domain: CRH1-Ig (D1,D2,D3); Limits on human LEPR cannot be told from the printed numbers; also called CRH1-Ig (D1, D2, D3); not shown: C-terminal myc-myc hexahistidine tag (amino acids 279-306 of the construct)
T4 sequence (looked up): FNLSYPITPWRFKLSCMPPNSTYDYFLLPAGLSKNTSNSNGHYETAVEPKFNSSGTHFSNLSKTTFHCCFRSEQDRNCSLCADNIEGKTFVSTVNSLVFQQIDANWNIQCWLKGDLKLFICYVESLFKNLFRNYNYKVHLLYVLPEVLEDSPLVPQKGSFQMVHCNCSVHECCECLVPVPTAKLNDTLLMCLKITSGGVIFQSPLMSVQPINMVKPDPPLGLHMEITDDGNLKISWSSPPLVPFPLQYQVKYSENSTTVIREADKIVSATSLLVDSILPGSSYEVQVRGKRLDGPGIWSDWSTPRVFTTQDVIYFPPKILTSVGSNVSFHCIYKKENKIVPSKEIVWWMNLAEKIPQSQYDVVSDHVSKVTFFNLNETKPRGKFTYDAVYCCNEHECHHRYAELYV
Method: Aliquots of microspheres with immobilized anti-myc monoclonal antibodies, prepared as described above, were added individually to 1 mL of the each of these protein supernatants. The microspheres were gently mixed, incubated for two hours at 25° C., washed twice with 1 mL of DBPS, centrifuged to remove the supernatant and finally resuspended in 1 mL of DPBS buffer.
From this mixed pool, 75 μL of microspheres were plated per well on a 96 well filter plate (Millipore, Cat. No: MSBVN1250) and mixed with 25 μL of individual anti-human LEPR monoclonal antibodies (0.5 or 5 μg/mL), incubated for two hours at 25° C. and then washed twice with 200 μL of DPBS with 0.05% Tween 20 (washing buffer). […] The Median Fluorescence intensity (MFI) of the microspheres was measured in a Luminex Analyzer.

Binder	Binding Ratio [1] [fold]	Binding Ratio [2] [fold]	Binding Ratio [3] [fold]	Binding Ratio [4] [fold]	200 nM mAb Bound (RU) [5] [RU]	Luminex MFI [6] [MFI]
B1	707	42	3120	2420	81	–
B2	1130	47	–	–	92	–
B3	–	–	–	–	–	205
B4	–	–	2490	2020	–	–
B5	1080	51	2220	2060	90	–
B6	1130	46	–	–	–	–
B7	–	–	2410	1490	–	–
B8	–	–	3110	3370	–	–
B9	–	–	2600	1840	–	–
